Assays:
[1] = target: T1, human NaPi2b on NaPi2b-positive cell lines OVCAR-3 and HCC-78 (human, UniProt O95436 1-690); assay: flow cytometry on OVCAR-3 cells; table column Binding KD (nmol/L), FACS (OVCAR-3)
T1 construct: Endogenous protein
T1 sequence: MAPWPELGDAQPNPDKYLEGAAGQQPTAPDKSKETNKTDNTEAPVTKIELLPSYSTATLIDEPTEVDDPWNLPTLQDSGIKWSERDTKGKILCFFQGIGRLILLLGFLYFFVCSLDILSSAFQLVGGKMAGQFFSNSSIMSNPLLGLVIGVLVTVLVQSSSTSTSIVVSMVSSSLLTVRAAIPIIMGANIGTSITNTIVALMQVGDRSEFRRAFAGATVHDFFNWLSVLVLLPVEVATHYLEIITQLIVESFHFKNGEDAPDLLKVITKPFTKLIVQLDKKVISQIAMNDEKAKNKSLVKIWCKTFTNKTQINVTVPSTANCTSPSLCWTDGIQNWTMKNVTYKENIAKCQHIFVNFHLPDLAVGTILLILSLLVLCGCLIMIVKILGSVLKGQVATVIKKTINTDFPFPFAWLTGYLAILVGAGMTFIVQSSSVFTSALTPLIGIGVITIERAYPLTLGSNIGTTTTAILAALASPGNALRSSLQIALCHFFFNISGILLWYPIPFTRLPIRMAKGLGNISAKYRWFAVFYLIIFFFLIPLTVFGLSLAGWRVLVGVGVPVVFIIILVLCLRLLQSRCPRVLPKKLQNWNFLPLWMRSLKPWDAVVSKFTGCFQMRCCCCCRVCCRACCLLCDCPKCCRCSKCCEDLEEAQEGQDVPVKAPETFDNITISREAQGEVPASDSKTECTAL

[2] = target: T2, human Napi2b-mCherry on HEK293 cells (human, UniProt O95436 1-690); assay: flow cytometry on HEK293 cells stably expressing human full-length NaPi2b-mCherry, Alexa-dye anti-human IgG H+L secondary antibody, MFI ratio, one-site specific binding fit; the Kd table prints no unit, the concentration axis is in nM; second experiment on human cells, run beside the rat cells of FIG. 3D
T2 construct: also called Napi2b (SLC34A2); HEK293 cells overexpressing Napi2b
T2 sequence: T1 sequence

[3] = target: T2, human Napi2b-mCherry on HEK293 cells; assay: flow cytometry on HEK293 cells expressing human Napi2b-mCherry (panel Napi2b-HEK293), Alexa-dye anti-human IgG H+L secondary antibody, MFI ratio to the non-specific binding control
[4] = target: T3, human Napi2a-mCherry on HEK293 cells (human, UniProt Q06495 1-639); assay: flow cytometry on HEK293 cells expressing human Napi2a-mCherry (panel Napi2a-HEK293), MFI ratio to the non-specific binding control
T3 construct: whole, on cells; also called Napi2a (SLC34A1); not shown: mCherry fusion
T3 sequence (looked up): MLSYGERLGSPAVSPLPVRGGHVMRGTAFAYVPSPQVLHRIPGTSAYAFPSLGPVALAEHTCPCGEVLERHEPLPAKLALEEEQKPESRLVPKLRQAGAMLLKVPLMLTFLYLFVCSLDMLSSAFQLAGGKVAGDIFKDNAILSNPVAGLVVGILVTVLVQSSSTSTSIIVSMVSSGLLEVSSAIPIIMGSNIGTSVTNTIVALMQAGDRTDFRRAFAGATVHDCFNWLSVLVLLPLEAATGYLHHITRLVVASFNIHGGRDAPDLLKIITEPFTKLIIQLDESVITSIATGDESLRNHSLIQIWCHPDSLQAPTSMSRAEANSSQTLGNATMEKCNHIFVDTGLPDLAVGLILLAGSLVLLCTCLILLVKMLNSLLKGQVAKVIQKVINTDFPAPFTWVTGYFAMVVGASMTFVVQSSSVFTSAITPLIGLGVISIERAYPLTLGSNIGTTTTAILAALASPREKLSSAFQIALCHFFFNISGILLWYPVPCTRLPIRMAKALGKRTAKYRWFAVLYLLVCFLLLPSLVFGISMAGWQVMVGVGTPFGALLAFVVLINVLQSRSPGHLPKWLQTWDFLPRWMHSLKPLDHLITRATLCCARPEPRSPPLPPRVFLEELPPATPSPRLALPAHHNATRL

FcγRIIIa (CD16) (F158) = target: T4, FcγRIIIa (CD16) (F158) (Homo sapiens, UniProt P08637); assay: Lumit FcγRIIIa (F158) Binding Immunoassay (Promega), right panel FcγRIIIa (CD16) (F158), competition with Tracer-LgBiT for FcγR-SmBiT, falling luminescence means binding, n=1
T4 construct: m21 joins both polymorphic variants; also called F158 variant of m21
T4 sequence (P08637 17-208 limits assumed): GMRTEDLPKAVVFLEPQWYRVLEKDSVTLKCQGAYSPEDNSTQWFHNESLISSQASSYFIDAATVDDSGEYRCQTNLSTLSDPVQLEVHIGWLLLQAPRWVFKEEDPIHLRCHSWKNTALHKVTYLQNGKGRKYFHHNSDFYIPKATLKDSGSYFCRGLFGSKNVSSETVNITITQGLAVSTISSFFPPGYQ

B1: AV25 mAb, LALA-silenced (AV25 HC-LALA) (antibody, human IgG1, kappa, L234A L235A)
heavy: not shown
light: DIQMTQSPSSLSASVGDRVTITCSASQDIGNFLNWYQQKPGKTVKVLIYYASSLYSGVPSRFSGSGSGTDYTLTISSLQPEDFATYYCQQYSKLPLTFGQGTKLELKRTVAAPSVFIFPPSDEQLKSGTASVVCLLNNFYPREAKVQWKVDNALQSGNSQESVTEQDSKDSTYSLSSTLTLSKADYEKHKVYACEVTHQGLSSPVTKSFNRGEC
notes: also called unmodified AV25 mAb
Q: How did the Kd [1] turn out when B1 was run?
A: The Kd was 2.7 nM.

Q: What about the Kd [2] of the same binder?
A: The Kd was 0.609 nM.

Q: What about the “EC50 (read off the curve)” value [3] of the same binder?
A: Its value is roughly 0.7 nM.

Q: Does B1 bind [4]?
A: Result: no binding (tested: 200 nM)

Q: Does B1 bind (FcγRIIIa (CD16) (F158))?
A: Result: binds

Source: patent publication US20240182596A1 (TUBULIS, published 2024)
